Reference: patent US20020019349A1

Target: relaxin binding sites on primary human fetal cardiac cells (receptor not named) (human)
Experiment: competitive binding on cultured cells: 100 µM 32P-relaxin, 2 hr at room temperature, with or without 1000-fold excess of unlabeled relaxin; (total - nonspecific)/total x 100

- percent specific binding: 40 to 55%
Substance: 32P-labeled relaxin (from UniProt P04090 162-185; P04090 25-53) (ligand)
